Reference: the DeepSol protein solubility set

Assay: soluble on expression in E. coli; label from the status in PepcDB or PDB records

Sequence | soluble on expression in E. coli
MGSDKIHHHHHHMPATAYSAIHGRDIRTLKQCPPVVDAMTYGFMVLLPCDVVVDKGTFSWDWQIPEPVTQNHPRAPLSFHTPGQLAGSPFATTGQAALKFNSFWTIEVEDGWSLFATHPVNREDLPFRLVTGLVDSDRFSDGGINFPAVWTEAGFSGVLAKGTPVAQCFAVPRAAPQLEYEVFDEERQASYARTVADVLSTPGVYRKRFRARRGRSTGE | not soluble
GPGSTGRSQATRTQERQEGRKKDMESKGTPTTRHPHVLTTARRKKETLWHGTPKRQTNPTTAVASKSEVVATSPHDGGSGRLPEDSQEATDEVVTLSSASSPLSRTLDGSCMPFAPPLGSDMAVTVACGPVNRTSLLSTEEKTAHAILGQADAMTDRRRSEEMLYYLEAARALREVTSGVEAREQCLRDEIERQSTLYSAKKLDLAEKQKVYERLHESTLRLTRNVRRIDSENDRIRDRLTKLQMTIEKMESRKLPRHIQQDVDRVVRCESVPSWQGANQRVGGCEAIVPMRSVGSVAKNTLMTELEMYTRKLRSAEVRHDKLIKELQLAVARRKGRAAAYNSFGASLSFSGYSGMGNRDGSFLTDSVGESIAIQQLERMIDDSLIRCK | not soluble
MGHHHHHHSHMVTQFKEKNESLQYETSSPTVQLKIPQLRVSSVSKSQPDGSGLLDVMYQVSKTSSVLEGSALQKLKNILPKQNKIECSGPVTHSSVDSYFLHGDLSPLCLNSKNGTVDGTSENTEDGLDRKDSKQPRKKRGRYRQYDHEIMEEAIAMVMSGKMSVSKAQGIYGVPHSTLEYKVKERSGTLKTPPKKKLRLPDTGLYNMTDSGTGSCKNSSKPV | soluble
MSRPESVLQLARKFGEISAAQENDIHKSRLSLKLGGKENLTKPTLILSKSGPPTPIRHVAPTITHTLPNRPNIGGIASLKSEPKMSRPNMFKQMEKVESNTTTTAPPRQLNPNSIKDALLRWIQNRVAGYPNVNVTNFSSSWADGMAFCALIHRFAPNSFDFSKLDPNNRRYNFDLAFKVAEDNGIFPLLEVDDMIMMGDRPDWKCVFTYVQSFYKQFRDHP | not soluble
SGSCCSCPDKDTVPDNHRNKFKVINVDDDGNELGSGIMELTDTELILYTRKRDSVKWHYLCLRRYGYDSNLFSFESGRRCQTGQGIFAFKCARAEELFNMLQEIMQNNSINVVEEPVVERNNHQTELEVPRTPRTPTTPGFAAQNLPNGYPRYPSFGDASSHPSSRHPSVGSARLPSVGEESTHPLLVAEEQVHTYVNTTGVQEERKNRTSVHVPLEARVSNAESSTPKEEPSSIEDRDPQILLEPEGVKFVLGPTPVQKQLMEKEKLEQLGRDQVSGSGANNTEWDTGYDSDERRDAPSVNKLVYENINGLSIPSASGVRRGRLTSTSTSDTQNINNSAQRRTALLNYENLPSLPPVWEARKLSRDEDDNLGPKTPSLNGYHNNLDPMHNYVNTENVTVPASAHKIEYSRRRDCTPTVFNFDIRRPSLEHRQLNYIQVDLEGGSDSDNPQTPKTPTTPLPQTPTRRTELYAVIDIERTAAMSNLQKALPRDDGTSRKTRHNSTDLPMLAWK | soluble
MGSDKIHHHHHHADVIVPEQPVPVVAVPAFSWAGFYLGGQVGNFSSKTALSYLGDEKTGKWTPVKKEFVPKLSGFVGGIYAGSNFDINNGFIIGIDTDVMWSGKKNTKIITWPEVPPEVSSEKKVERVSVGTNQDTSAEVTNGALSHTLKQKWFGATRVKVGFVVDRMMPYIAGGVAYTQLQNIFEKEADKTKKAIDISNVIHDEKKTMVGYTLGGGIDFAMTDNVIVRAEYRYSDYGKKKFADEKIEMRYKTNDFRVGVAYKF | not soluble
MPQLQKEWFDTWFDTPYYHILYSNRDESEAEVFLTNLMNHMAVPKGASILDLPCGKGRHTLFLAEKGYTLTGADLSVASIALAQSHAPAGVTFLVHDLRKPAWNESFDYVLNLFTSFGYFETEAEDRAAFTTLSKALKSGGSLVIDFMNVTRAVNLLKEEETKVMEGIEFQLKRYVKDGYIHKEIRFEADNTPFFFTERVKALTLDDFKEFFTFAGLTLVDTFGSYQLDAYDAAESDRLIMIAKKLEHHHHHH | soluble
MAIPGNMWIYDDGGALIKGGCDVADREFSIEFKGFHHNLSIPTDHATGKPTGTRQHSPMIIVKEFDYSSPYLYKAVATGQNLKSAEIKWYKISDAGQEVEYFNMLLEGVRIVSISPTMASPEDKNNNHLESVELRYEKITWKHCDGNIIFTDAWNERQTA | not soluble
